Experimental data taken from patent US20250019463A1 (UCB, published 2025).

T1: human transglutaminase type 2 (TG2) (human, UniProt P21980 2-687)
T1 sequence: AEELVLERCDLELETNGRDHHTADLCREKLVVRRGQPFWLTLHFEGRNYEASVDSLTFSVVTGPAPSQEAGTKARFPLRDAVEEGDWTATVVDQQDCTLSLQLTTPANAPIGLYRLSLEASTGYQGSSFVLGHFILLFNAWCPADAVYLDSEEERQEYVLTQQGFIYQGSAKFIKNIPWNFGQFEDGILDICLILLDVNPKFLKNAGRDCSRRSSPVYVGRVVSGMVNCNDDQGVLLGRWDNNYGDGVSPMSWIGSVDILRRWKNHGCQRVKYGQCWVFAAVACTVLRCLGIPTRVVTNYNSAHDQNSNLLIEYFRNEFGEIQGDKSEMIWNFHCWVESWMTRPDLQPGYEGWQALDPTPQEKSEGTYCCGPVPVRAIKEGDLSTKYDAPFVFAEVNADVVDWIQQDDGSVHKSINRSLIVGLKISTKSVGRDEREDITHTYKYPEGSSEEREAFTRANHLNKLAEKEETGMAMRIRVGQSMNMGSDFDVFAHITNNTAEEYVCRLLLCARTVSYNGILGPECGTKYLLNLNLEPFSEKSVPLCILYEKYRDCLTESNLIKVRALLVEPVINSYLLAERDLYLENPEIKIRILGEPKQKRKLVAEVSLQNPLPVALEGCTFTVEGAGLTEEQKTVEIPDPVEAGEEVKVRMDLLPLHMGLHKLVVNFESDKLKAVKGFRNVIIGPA


Legend:
[1] = target: T1, human transglutaminase type 2 (TG2); assay: cell-based or functional assay
rabbit TG2 = rabbit TG2 (rabbit); assay: cell-based or functional assay

IC50 against human TG2 (assay not given) [1] [nM]	IC50 against rabbit TG2 (assay not given) (rabbit TG2) [nM]	Binder
0.25	103	Zampilimab (antibody, V domains shown) VH: EVQLLESGGGLVQPGGSLRLSCAASGFTLSTHAMSWVRQAPGKGLEWVATISSGGRSTYYPDSVKGRFTISRDNSKNTLYLQMNSLRAEDTAVYFCARLISTYWGQGTLVTVSS VL: DITMTQSPSSLSASVGDRVTITCKASQDINSYLTWFQQKPGKAPKILIYLVNRLVDGVPSRFSGSGSGQDYALTISSLQPEDFATYYCLQYDDFPYTFGQGTKVEIK
0.3	8	rbBB7 (antibody, V domains shown) VH: EVQLLESGGRLVTPGGSLTLTCAASGIIFSSSAMSWVRQAPGKGLEWVATISSGGRSTYYPDSVKGRFTVSRDSSKNTLYLQMNSLRAEDTAVYYCAKLISPYWGQGTLVTVSS VL: AIKMTQTPSSVSAAVGGTVTISCKASQDINSYLTWFQQKPGQPPKTLIYLTNRLMDGVPSRFSGSGSGQEFLLTISGLECDDAATYYCLQYVDFPYTFGGGTKVVVK
